Source: patent US20120237528A1 (Janssen / Centocor, published 2012)
Positions count from the first letter of the chain named.

B1: M11 (antibody, V domains shown)
VH: EVQLVQSGAEVKKPGESLRISCKGSGYTFITYWIEWVRQMPGKGLEWMGDILPGSGSTNYNENFKGHVTISADKSISTAYLQWSSLKASDTAMYYCARSGYYGNSGFAYWGQGTLVTVSS
VL: DIVMTQSPLSLPVTPGEPASISCKSSQSLLSSGNQKNYLTWYLQKPGQSPQLLIYWASTRESGVPDRFSGSGSGTDFTLKISRVEAEDVGVYYCQNDYTYPLTFGQGTKLEIK
notes: complete MAb; FR4 is its own entry; also called H15/L4
B2: M12 (antibody, V domains shown)
VH: B1 VH
VL: B1 VL with S7T, P12S, E17Q, S49P
notes: complete MAb; FR4 is its own entry; also called H15/L5
B3: M60 (antibody, V domains shown)
VH: B1 VH with N61S, E62P, N63S, K65Q
VL: B1 VL
notes: complete MAb; FR4 is its own entry; also called H22/L4
B4: M9 (antibody, V domains shown)
VH: B1 VH
VL: DIVMTQSPDSLAVSLGERATINCKSSQSLLSSGNQKNYLTWYQQKPGQPPKLLIYWASTRESGVPDRFSGSGSGTDFTLTISSLQAEDVAVYYCQNDYTYPLTFGQGTKLEIK
notes: complete MAb; FR4 is its own entry; also called H15/L2
B5: M58 (antibody, V domains shown)
VH: B1 VH with N61S, E62P, N63S, K65Q
VL: B4 VL
notes: complete MAb; FR4 is its own entry; also called H22/L2
B6: M16 (antibody, V domains shown)
VH: QVQLVQSGAEVKKPGASVKVSCKASGYTFITYWIEWVRQAPGQGLEWMGDILPGSGSTNYNENFKGRVTMTRDTSTSTVYMELSSLRSEDTAVYYCARSGYYGNSGFAYWGQGTLVTVSS
VL: B4 VL
notes: complete MAb; FR4 is its own entry; also called H16/L2
B7: M51 (antibody, V domains shown)
VH: EVQLVQSGAEVKKPGATVKISCKVSGYTFITYWIEWVQQAPGKGLEWMGDILPGSGSTNYNENFKGRVTITADTSTDTAYMELSSLRSEDTAVYYCATSGYYGNSGFAYWGQGTLVTVSS
VL: B4 VL
notes: complete MAb; FR4 is its own entry; also called H21/L2
B8: M52 (antibody, V domains shown)
VH: B7 VH
VL: B1 VL with S7T
notes: complete MAb; FR4 is its own entry; also called H21/L3
B9: M33 (antibody, V domains shown)
VH: EVQLVESGGGLVQPGGSLRLSCAASGYTFITYWIEWVRQAPGKGLVWVSDILPGSGSTNYNENFKGRFTISRDNAKNTLYLQMNSLRAEDTAVYYCARSGYYGNSGFAYWGQGTLVTVSS
VL: B1 VL with S7T, P12S, E17Q, S49P
notes: complete MAb; FR4 is its own entry; also called H18/L5
B10: M35 (antibody, V domains shown)
VH: B9 VH
VL: B1 VL with S7T, L11S, P15L, E17Q, Y42L, L43Q, K45R, S49P, Q51R, S73A
notes: complete MAb; FR4 is its own entry; also called H18/L7
B11: M54 (antibody, V domains shown)
VH: B7 VH
VL: B1 VL with S7T, P12S, E17Q, S49P
notes: complete MAb; FR4 is its own entry; also called H21/L5
B12: M56 (antibody, V domains shown)
VH: B7 VH
VL: B1 VL with S7T, L11S, P15L, E17Q, Y42L, L43Q, K45R, S49P, Q51R, S73A
notes: complete MAb; FR4 is its own entry; also called H21/L7

biological target: T1, endogenous human tissue factor on MDA-MB-231 breast cancer cells (human, UniProt P13726 33-295); assay: cell-based or functional assay

Point of comparison: B8, “% IL-8 Inhibition” value 67.7%. Against it:
- B1 — higher, 87.9%
- B2 — higher, 98.6%
- B3 — higher, 99.6%
- B4 — higher, 103%
- B5 — higher, 88.5%
- B6 — higher, 98.3%
- B7 — higher, 71.5%

biological target: T2, recombinant extracellular domain (ECD) of human TF, amino acid 1-219 of the mature chain, C-terminal His6-tag (human, UniProt P13726 33-251); assay: Biacore
T2 construct: expressed in a mammalian system; used for ELISA and Biacore; biotinylated by NHS-ester for the Fab ELISA; also called His6-TF-ECD1-219; HumanTF1-219

Point of comparison: B5, Kd 0.19 nM. Against it:
- B1 — 1.9-fold higher, 0.36 nM
- B2 — 2.9-fold higher, 0.55 nM
- B3 — 2.5-fold higher, 0.47 nM
- B4 — 3.2-fold higher, 0.61 nM
- B6 — 3.5-fold higher, 0.66 nM
- B7 — 15-fold higher, 2.9 nM
- B8 — 19-fold higher, 3.57 nM

Point of comparison: B4, koff 5.9e-05 s⁻¹. Against it:
- B2 — within 1.5-fold, 5.1e-05 s⁻¹
- B5 — 3.3-fold lower, 1.8e-05 s⁻¹
- B6 — within 1.5-fold, 6.7e-05 s⁻¹
- B7 — 4-fold higher, 0.000235 s⁻¹
- B8 — 4.5-fold higher, 0.000264 s⁻¹

Point of comparison: B5, kon 94800 M⁻¹ s⁻¹. Against it:
- B2 — within 1.5-fold, 92200 M⁻¹ s⁻¹
- B4 — within 1.5-fold, 97300 M⁻¹ s⁻¹
- B6 — within 1.5-fold, 102000 M⁻¹ s⁻¹
- B7 — within 1.5-fold, 81100 M⁻¹ s⁻¹
- B8 — within 1.5-fold, 74000 M⁻¹ s⁻¹

biological target: T1, endogenous human tissue factor on …; assay: FACS on MDA-MB-231 cells
Protocol: This assay is used to detect the direct binding of antibody to endogenouse human TF expressed in breast cancer cells. Prepare four point titrations of the test mAbs in FACS buffer (1% FBS in PBS) in duplicate. Start a titration at 1,000 ng/ml with 1:4 dilutions. […] Unstained cells and secondary antibody, Cy-5 conjugated Goat anti-Human IgG Fc antibody in FACS buffer 1:200, is used as controls and prepared immediately before use.
Using standard tissue culture technique, rinse adherent MDA-MB-231 cells in culture flask with once with PBS (w/o Ca+2/Mg+2). Lift cells with Versene and count the cells and seed 200,000 cells per well in a polystyrene V-bottom plate. FACS Analysis Protocol: Tissue Factor Binding. Pellet the cells in a Allegra X-15R centrifuge at 450×g for 3 minutes at 4° C., resuspend in FACS Buffer (2% FBS in PBS) and plate 200,000 cells per well in 200 uL. Pellet cells at 450×g for 3 minutes at 4° C. Discard supernatants and add 100 uL/well test or control mAbs to designated wells and incubate on ice or at 4° C. for 1 hour (+/−10 minutes). Pellet cells at 450×g for 3 minutes at 4° C. Discard supernatants and wash cells once in FACS buffer. Resuspend cells in 200 uL/well FACS buffer and pellet cells at 450×g for 3 minutes at 4° C. Discard supernatants and add 100 uL/well secondary antibody to designated wells (triterate), and incubate on ice for 1 hour (+/−10 minutes). Pellet cells at 450×g for 3 minutes at 4° C. Discard supernatants and wash cells 2 times in FACS buffer before resuspending the cells in 200 uL/well FACS Buffer (triterate). Pellet cells at 450×g for 3 minutes at 4° C. Discard supernatant and resuspend cells in 100 uL/well CytoFix Buffer. Analyze reactions by flow cytometry (BD FACSArray). The FlowJo Software is used for FACS data analysis by gating the main population of cells in the unstained control well and applying the gate to the whole data set. The data is exported as a table of the geometric mean fluorescence intensity (MFI) in the red channel for the applied gate.

Point of comparison: B2, “Whole Cell Binding, Ave %” value 124%. Against it:
- B1 — lower, 114%
- B4 — lower, 107%
- B5 — lower, 94%
- B6 — lower, 109%

biological target: T1, endogenous human tissue factor on …; assay: cell-based or functional assay; remark: another data set of the same source

Point of comparison: B1, “IL-8 Induction, Ave % inhibition” value 93%. Against it:
- B2 — higher, 102%
- B3 — higher, 106%
- B4 — higher, 106%
- B5 — higher, 106%
- B6 — higher, 109%

biological target: T2, recombinant extracellular domain (ECD) …; assay: direct ELISA, 50 ng/ml

B9: binds.
B10: binds.
B11: binds.
B12: binds.

biological target: T2, recombinant extracellular domain (ECD) …; assay: Biacore; remark: another data set of the same source

Point of comparison: B4, Kd 0.61 nM. Against it:
- B1 — 1.6-fold lower, 0.37 nM
- B2 — within 1.5-fold, 0.55 nM
- B3 — within 1.5-fold, 0.47 nM
- B5 — 3-fold lower, 0.2 nM
- B6 — within 1.5-fold, 0.66 nM

Biological target: T3, Cynomolgous monkey (cyno) TF-ECD with His Tag (cynomolgus monkey, UniProt P13726 33-251 (human entry))
T3 construct: also called cyno antigen
T3 chain: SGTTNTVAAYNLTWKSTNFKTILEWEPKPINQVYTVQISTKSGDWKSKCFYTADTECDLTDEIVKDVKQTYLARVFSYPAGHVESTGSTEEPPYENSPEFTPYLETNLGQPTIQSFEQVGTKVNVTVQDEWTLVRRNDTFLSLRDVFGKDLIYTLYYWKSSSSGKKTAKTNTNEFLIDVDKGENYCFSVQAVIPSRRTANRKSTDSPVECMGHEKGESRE
Assay: Biacore

Point of comparison: B1, Kd 1.52 nM. Against it:
- B2 — within 1.5-fold, 2.24 nM
- B3 — within 1.5-fold, 1.31 nM
- B4 — within 1.5-fold, 1.55 nM
- B5 — within 1.5-fold, 1.18 nM
- B6 — within 1.5-fold, 1.96 nM

Biological target: T3, Cynomolgous monkey (cyno) TF-ECD with …
Assay: direct ELISA of supernatants, chemiluminescent
Protocol: A solution Phase direct TF binding ELISA using chemiluminescent detection was used to rank the top binders from human framework adaptation library. The 96 well black maxisorp plates were coated with 100 uL of 4 ug/ml Goat anti human IgG FC diluted in carbonate-bicarbonate buffer, pH 9.4 at 4° C. overnight and then washed thrice with wash buffer (PBS with 0.05% Tween-20 solution) and blocked with […] 1% BSA/10 mM PBS solution for 1 hour followed by a washing as before. Samples or standards were diluted to 50 ng/ml in Assay Buffer (1% BSA in PBS+05% Tween) and 100 ul was added to the assay plate at room temperature for 1 hour with shaking. The plates were washed thrice and 100 ul per well of human or cynomologus TF-ECD with His Tag was added at 100 ng/ml diluted in Assay Buffer and incubate for 2 hours at room temperature. After washing, 100 ul per well of Qiagen peroxidase conjugated penta-his at 1:2000 dilution in assay buffer was added and incubated 1 hour at room temperature with shaking. The BM ChemiLum Substrate (BM Chemilum, POD, Roche) was made freshly at 1:100 dilution into Buffer and 100 ul added to the plates after a final wash. After 10 minutes the plates are read on Perkin Elmer Envision Reader, BM ChemiLum program.
For primary screening of library variants in crude supernatants, samples or controls were normalized to 50 ng/ml in spent FreeStyle 293 HEK media (Gibco) and assayed at single concentration determinations. In the present assay, the concentration of antibody was 5 ng (0.1 ml used) and the TF ECD and the antigen was His6-TF-ECD₁₋₂₁₉ used at a final concentration of 10 ng/well.

B7: no binding (tested: 50 ng/ml).
B8: no binding (tested: 50 ng/ml).
B9: no binding (tested: 50 ng/ml).
B10: no binding (tested: 50 ng/ml).
B11: no binding (tested: 50 ng/ml).
B12: no binding (tested: 50 ng/ml).

biological target: T2, recombinant extracellular domain (ECD) …; assay: TF-ECD binding ELISA, chemiluminescent

Point of comparison: B6, EC50 0.00931 mg/L. Against it:
- B1 — within 1.5-fold, 0.00994 mg/L
- B2 — within 1.5-fold, 0.01 mg/L
- B3 — within 1.5-fold, 0.00835 mg/L
- B4 — within 1.5-fold, 0.0098 mg/L
- B5 — within 1.5-fold, 0.00903 mg/L

Biological target: T3, Cynomolgous monkey (cyno) TF-ECD with …
Assay: TF-ECD binding ELISA, chemiluminescent

Point of comparison: B4, EC50 0.0199 mg/L. Against it:
- B1 — within 1.5-fold, 0.0187 mg/L
- B2 — within 1.5-fold, 0.0228 mg/L
- B3 — within 1.5-fold, 0.0178 mg/L
- B5 — within 1.5-fold, 0.0198 mg/L
- B6 — within 1.5-fold, 0.0234 mg/L

biological target: Innovin, lyophilized recombinant human tissue factor combined with phospholipids (human, UniProt P13726 33-295, limits assumed); assay: cell-based or functional assay

Point of comparison: B2, “T½ Max (seconds), coagulation of human plasma” value 197 s. Against it:
- B1 — lower, 195 s
- B3 — lower, 180 s
- B4 — higher, 198 s
- B5 — lower, 192 s
- B6 — higher, 198 s
- B7 — higher, 207 s
- B8 — higher, 201 s
